Measured values: US11260101 (JINAN UNIVERSITY, dated 2022)

Biological target: T1, fibroblast growth factor receptor 2 (FGFR2)
T1 construct: also called membrane receptor FGFR2
Assay: isothermal titration calorimetry (ITC)
From the text: 1. Detection of the Affinity Between the Repair Peptide R1 and FGFR2 by Using the ITC Method The affinity was detected by an isothermal totration calorimetry (ITC), and the detection result was shown in FIG. 1. […] (The K denoted the affinity constant, and the Kd denoted the dissociation constant. The larger the K was and the smaller the Kd was, the stronger the affinity was).

T1 sequence (P21802 22-821): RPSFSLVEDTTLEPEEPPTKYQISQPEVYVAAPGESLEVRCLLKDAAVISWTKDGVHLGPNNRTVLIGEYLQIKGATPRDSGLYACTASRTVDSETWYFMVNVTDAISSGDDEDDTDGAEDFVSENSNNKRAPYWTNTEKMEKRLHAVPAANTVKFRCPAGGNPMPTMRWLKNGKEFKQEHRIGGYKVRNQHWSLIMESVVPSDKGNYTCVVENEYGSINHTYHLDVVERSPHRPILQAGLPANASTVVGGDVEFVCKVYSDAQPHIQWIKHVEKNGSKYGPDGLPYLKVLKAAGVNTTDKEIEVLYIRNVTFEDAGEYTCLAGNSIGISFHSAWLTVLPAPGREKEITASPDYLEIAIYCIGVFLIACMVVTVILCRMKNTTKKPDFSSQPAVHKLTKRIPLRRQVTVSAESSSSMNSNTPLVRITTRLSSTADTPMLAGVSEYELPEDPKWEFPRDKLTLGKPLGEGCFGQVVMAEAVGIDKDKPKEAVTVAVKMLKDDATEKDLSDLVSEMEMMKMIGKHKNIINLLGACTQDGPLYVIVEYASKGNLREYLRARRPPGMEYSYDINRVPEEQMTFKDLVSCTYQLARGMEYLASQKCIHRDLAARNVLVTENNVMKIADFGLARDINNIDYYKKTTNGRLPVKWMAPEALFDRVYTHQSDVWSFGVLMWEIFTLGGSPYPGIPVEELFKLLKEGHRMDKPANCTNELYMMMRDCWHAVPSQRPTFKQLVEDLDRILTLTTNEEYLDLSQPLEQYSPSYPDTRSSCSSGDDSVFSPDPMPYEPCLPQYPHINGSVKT

Ka: 7.35e+08 M⁻¹ | Kd: ~1.37 nM
B1: repair peptide R1 (peptide)
peptide: GPANVET
notes: Linear 7-residue peptide made by chemical synthesis; also called R1 peptide; GPANVET
